In paper PMC10210160, “Structural and biochemical elucidation of class I hybrid cluster protein natively extracted from a marine methanogenic archaeon” (Frontiers in Microbiology, 2023):

T1: MtHCP (hybrid cluster protein, class I) (Methanothermococcus thermolithotrophicus, UniProt A0AA82WPD8)
T1 construct: gene hcp; native anaerobic purification from the archaeon, untagged; five extra N-terminal residues versus WP_026182881.1 (mispredicted start Met)
T1 sequence (A0AA82WPD8 1-548): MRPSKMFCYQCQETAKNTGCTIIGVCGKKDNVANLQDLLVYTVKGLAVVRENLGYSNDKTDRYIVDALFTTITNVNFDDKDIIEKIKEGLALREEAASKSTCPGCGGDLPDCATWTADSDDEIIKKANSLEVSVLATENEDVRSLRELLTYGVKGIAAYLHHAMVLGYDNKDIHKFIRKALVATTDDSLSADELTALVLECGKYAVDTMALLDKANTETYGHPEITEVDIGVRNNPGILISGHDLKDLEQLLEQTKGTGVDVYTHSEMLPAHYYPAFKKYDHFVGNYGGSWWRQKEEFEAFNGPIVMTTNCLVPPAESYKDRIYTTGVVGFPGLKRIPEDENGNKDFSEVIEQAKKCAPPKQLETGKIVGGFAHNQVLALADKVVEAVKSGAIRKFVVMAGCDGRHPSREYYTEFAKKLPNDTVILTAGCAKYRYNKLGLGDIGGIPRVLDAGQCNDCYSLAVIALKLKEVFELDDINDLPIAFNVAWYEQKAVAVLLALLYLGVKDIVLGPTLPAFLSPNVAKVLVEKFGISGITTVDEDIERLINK


Legend:
[1] = molecular target: T1, MtHCP (hybrid cluster protein, class I); assay: X-ray crystal structure, […] Å; format: binding; settings: as isolated, reduced state (MtHCPred)
purified protein = substrate: NO; assay: purified protein; format: biochemical, Methanothermococcus thermolithotrophicus; settings: 10 mM methyl viologen, 75 μM dithionite, 10 μM EDTA, 50 mM HEPES pH 7.35, 50°C, anaerobic

| Molecule | X-ray crystal structure, 1.45 Å [1] | Km (purified protein) [µM] | kcat (purified protein) [s⁻¹] |
| --- | --- | --- | --- |
| [S]12[Fe]3[S]4[Fe]1[S]1[Fe]2[S]3[Fe]41 [[4Fe-4S] cluster] | harbouring a cubane [4Fe-4S] cluster and the hybrid cluster | – | – |
| MtHCP (hybrid cluster protein, class I) (Methanothermococcus thermolithotrophicus DSM 2095) (protein, native anaerobic purification from the archaeon, untagged; five extra N-terminal residues versus WP_026182881.1 (mispredicted start Met)) MRPSKMFCYQCQETAKNTGCTIIGVCGKKDNVANLQDLLVYTVKGLAVVRENLGYSNDKTDRYIVDALFTTITNVNFDDKDIIEKIKEGLALREEAASKSTCPGCGGDLPDCATWTADSDDEIIKKANSLEVSVLATENEDVRSLRELLTYGVKGIAAYLHHAMVLGYDNKDIHKFIRKALVATTDDSLSADELTALVLECGKYAVDTMALLDKANTETYGHPEITEVDIGVRNNPGILISGHDLKDLEQLLEQTKGTGVDVYTHSEMLPAHYYPAFKKYDHFVGNYGGSWWRQKEEFEAFNGPIVMTTNCLVPPAESYKDRIYTTGVVGFPGLKRIPEDENGNKDFSEVIEQAKKCAPPKQLETGKIVGGFAHNQVLALADKVVEAVKSGAIRKFVVMAGCDGRHPSREYYTEFAKKLPNDTVILTAGCAKYRYNKLGLGDIGGIPRVLDAGQCNDCYSLAVIALKLKEVFELDDINDLPIAFNVAWYEQKAVAVLLALLYLGVKDIVLGPTLPAFLSPNVAKVLVEKFGISGITTVDEDIERLINK | – | 2200 ± 500 | 0.072 |
